Source: US11702475B2, “Cysteine engineered fibronectin type III domain binding molecules” (Janssen Biotech, Inc., priority 2013, dated 2023)

What was measured:
EGFR = EGFR (Homo sapiens, UniProt P00533); assay: Inhibition of EGF-stimulated EGFR phosphorylation in A431 cells (phospho-EGFR assay); format: cell-based; conditions: 50 ng/mL EGF, EGFR Tyr1173
Description: Purified EGFR-binding FN3 domains were tested for their ability to inhibit EGF-stimulated phosphorylation of EGFR in A431 cells at a single concentration. EGFR phosphorylation was monitored using the EGFR phospho(Tyr1173) kit (Meso Scale Discovery). Cells were plated at 20,000/well in clear 96-well tissue culture-treated plates (Nunc) in 100 μL/well of RPMI medium (Gibco) containing GlutaMAX™ with 10% fetal bovine serum (FBS) (Gibco) and allowed to attach overnight at 37° C. in a humidified 5% CO2 atmosphere. Culture medium was removed completely and cells were starved overnight in 100 μL/well of medium containing no FBS at 37° C. in a humidified 5% CO2 atmosphere. […] Signals were detected by addition of 150 μL/well of Read Buffer (Meso Scale Discovery) and reading on a SECTOR® Imager 6000 instrument (Meso Scale Discovery) using manufacturer-installed assay-specific default settings. Percent inhibition of the EGF-stimulated positive control signal was calculated for each EGFR-binding FN3 domain.
Data were plotted as electrochemiluminescence signal against the logarithm of the FN3 domain molar concentration and IC50 values were determined by fitting data to a sigmoidal dose response with variable slope using GraphPad Prism 4 (GraphPad Software). […]

NCI-H322 cells = assay: NCI-H322 growth assay; format: cell-based, human; conditions: 120 hours, CellTiter-Glo
Description: Inhibition of EGFR-dependent cell growth was assessed by measuring viability of the EGFR over-expressing human tumor cell lines, NCI-H292 and NCI-H322 (American Type Culture Collection, cat. #CRL-1848 & #CRL-5806, respectively), following exposure to EGFR-binding FN3 domains. Cells were plated at 500 cells/well (NCI-H292) or 1,000 cells/well (NCI-H322) in opaque white 96-well tissue culture-treated plates (Nunc) in 1004/well of RPMI medium (Gibco) containing GlutaMAX™ and 10 mM HEPES, supplemented with 10% heat inactivated fetal bovine serum (Gibco) and 1% penicillin/streptomycin (Gibco), and allowed to attach overnight at 37° C. in a humidified 5% CO2 atmosphere. Cells were treated by addition of 54/well of phosphate-buffered saline (PBS) containing a concentration range of EGFR-binding FN3 domains. […] Viable cells were detected by addition of 754/well of CellTiter-Glo® reagent (Promega), followed by mixing on a plate shaker for 2 minutes, and incubation in the dark at room temperature for a further 10 minutes. Plates were read on a SpectraMax M5 plate reader (Molecular Devices) set to luminescence mode, with a read time of 0.5 seconds/well against a blank of medium only. […] IC50 values were determined by fitting data to the equation for a sigmoidal dose response with variable slope using GraphPad Prism 4 (GraphPad Software).

B1: P54AR4-47: EGFR-binding FN3 domain, SEQ ID NO: 20 (protein)
chain: LPAPKNLVVSEVTEDSLRLSWGYNGDHFDSFLIQYQESEKVGEAINLTVPGSERSYDLTGLKPGTEYTVSIYGVHNVYKDTNMRGLPLSAEFTT
modifications: EGFR binding FN3 domain
**Q.** Which results are given for B1?
**A.** IC50 (EGFR): 295 nM; IC50 (NCI-H322 cells): 39 nM
